This test concerns the target T1, GST (UniProt P08515 1-218 = GST).
T1 construct: Control of the GST pull-down
Briefly: GST pull-down on glutathione-agarose beads, SDS-PAGE and Sypro Ruby stain. On the procedure: The proteins bound to the beads were separated by SDS-PAGE and stained with Sypro Ruby.
Four micrograms of the GST fusion protein was mixed with 4 μg of His-BARD1¹⁴⁻¹⁸⁹ and 25 μl of glutathione-agarose beads in 1 ml of a buffer containing 50 mM Tris-HCl (pH 7.5), 0.5% NP-40, 150 mM NaCl, 50 mM NaF and 1 mM dithiothreitol. After rotation at 4° C. for 2 hours, GST fusion proteins bound to glutathione-agarose beads were washed three times and subsequently eluted with SDS-PAGE loading buffer.

T1 sequence (P08515 whole entry): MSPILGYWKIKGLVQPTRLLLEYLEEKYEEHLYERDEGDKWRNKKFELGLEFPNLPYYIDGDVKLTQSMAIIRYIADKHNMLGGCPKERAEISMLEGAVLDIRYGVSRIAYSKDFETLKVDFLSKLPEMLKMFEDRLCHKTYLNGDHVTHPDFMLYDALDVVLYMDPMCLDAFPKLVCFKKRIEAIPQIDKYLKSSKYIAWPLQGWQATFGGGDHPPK

B1: His-BARD1^14-189 (other)
chain: IRSGNEPRSAPAMEPDGRGAWAHSRAALDRLEKLLRCSRCTNILREPVCLGGCEHIFCSNCVSDCIGTGCPVCYTPAWIQDLKINRQLDSMIQLCSKLRNLLHDNELSDLKEDKPRKSLFNDAGNKKNSIKMWFSPRSKKVRYVVSKASVQTQPAIKKDASAQQDSYEFVSPSPPA
notes: Bacterially expressed recombinant protein; not shown: His tag
For the molecule B1, the binding result was “no binding (tested: 4 µg of each protein in 1 ml)”.

The values are drawn from US20090130760A1 (ST MARIANNA UNIVERSITY SCHOOL OF MEDICINE, published 2009).
